Ends that are not written are not given here. * marks the point of attachment. Biotin = O=C1N[C@H]2[C@H](CS[C@H]2CCCCC(=O)*)N1
Experiments:
Assay in all cases: peptide or protein array; E. coli proteome chip: purified His-tagged proteins printed in duplicate on Fullmoon slides, blocked with 1% BSA; 10 nM N-terminal biotinylated LfcinB with 1% BSA, room temperature, 1 h; detected with DyLight 649-labeled streptavidin, ratio to DyLight 549-labeled anti-His antibody; ProCAT normalisation, local cut-off; triplicate chips
Settings in all cases: both partners purified
EnvR = target: T1, EnvR (E. coli K-12, UniProt P0ACT2 1-220)
T1 construct: EnvR, E. coli K-12
T1 sequence (looked up): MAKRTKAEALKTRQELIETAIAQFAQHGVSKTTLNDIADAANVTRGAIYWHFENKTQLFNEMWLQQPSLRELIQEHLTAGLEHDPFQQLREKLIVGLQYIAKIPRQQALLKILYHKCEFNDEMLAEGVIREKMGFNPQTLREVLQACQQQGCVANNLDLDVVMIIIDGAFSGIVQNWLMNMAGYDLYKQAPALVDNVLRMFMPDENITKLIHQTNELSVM

YbbN = target: T2, YbbN (E. coli K-12, UniProt P77395 1-284)
T2 construct: YbbN, E. coli K-12
T2 sequence (looked up): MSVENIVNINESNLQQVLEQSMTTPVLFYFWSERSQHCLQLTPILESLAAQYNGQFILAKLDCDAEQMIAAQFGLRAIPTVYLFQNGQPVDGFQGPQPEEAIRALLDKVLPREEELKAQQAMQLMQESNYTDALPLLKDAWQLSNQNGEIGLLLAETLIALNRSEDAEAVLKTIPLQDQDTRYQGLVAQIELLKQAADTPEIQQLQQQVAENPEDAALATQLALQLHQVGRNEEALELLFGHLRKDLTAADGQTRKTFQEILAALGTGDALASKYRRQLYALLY

adenylate cyclase CyaA = target: T3, adenylate cyclase CyaA (E. coli K-12, UniProt P00936 1-848)
T3 construct: CyaA, adenylate cyclase, E. coli K-12
T3 sequence (looked up): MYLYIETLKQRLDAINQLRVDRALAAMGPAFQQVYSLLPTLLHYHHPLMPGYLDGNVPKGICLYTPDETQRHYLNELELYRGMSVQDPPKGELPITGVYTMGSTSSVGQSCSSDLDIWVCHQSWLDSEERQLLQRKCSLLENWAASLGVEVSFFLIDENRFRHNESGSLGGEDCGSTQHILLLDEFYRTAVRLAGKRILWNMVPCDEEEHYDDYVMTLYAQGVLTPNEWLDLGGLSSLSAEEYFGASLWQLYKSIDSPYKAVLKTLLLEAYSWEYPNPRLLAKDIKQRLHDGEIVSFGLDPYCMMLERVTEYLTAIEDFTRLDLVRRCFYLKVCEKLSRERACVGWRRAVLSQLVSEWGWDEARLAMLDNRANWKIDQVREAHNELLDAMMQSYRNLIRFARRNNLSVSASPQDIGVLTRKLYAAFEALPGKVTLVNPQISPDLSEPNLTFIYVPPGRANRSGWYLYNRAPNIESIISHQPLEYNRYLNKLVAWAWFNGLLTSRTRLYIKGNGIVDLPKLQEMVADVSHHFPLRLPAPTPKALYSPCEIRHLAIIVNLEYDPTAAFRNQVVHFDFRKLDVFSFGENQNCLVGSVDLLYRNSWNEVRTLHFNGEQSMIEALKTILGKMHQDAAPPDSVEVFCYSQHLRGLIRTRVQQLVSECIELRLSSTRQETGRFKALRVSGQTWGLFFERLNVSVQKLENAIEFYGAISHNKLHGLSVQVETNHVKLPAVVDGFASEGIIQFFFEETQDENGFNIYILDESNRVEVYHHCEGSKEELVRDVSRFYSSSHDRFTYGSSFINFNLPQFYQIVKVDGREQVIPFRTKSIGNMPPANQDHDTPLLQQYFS

YehS = target: T4, YehS (E. coli K-12, UniProt P33355 1-156)
T4 construct: YehS, E. coli K-12
T4 sequence (looked up): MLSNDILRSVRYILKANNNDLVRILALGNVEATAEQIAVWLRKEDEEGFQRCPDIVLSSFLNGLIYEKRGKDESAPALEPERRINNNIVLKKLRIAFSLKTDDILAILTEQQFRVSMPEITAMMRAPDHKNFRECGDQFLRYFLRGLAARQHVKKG

RfaZ = target: T5, RfaZ (E. coli K-12, UniProt P27241 1-283)
T5 construct: RfaZ, E. coli K-12
T5 sequence (looked up): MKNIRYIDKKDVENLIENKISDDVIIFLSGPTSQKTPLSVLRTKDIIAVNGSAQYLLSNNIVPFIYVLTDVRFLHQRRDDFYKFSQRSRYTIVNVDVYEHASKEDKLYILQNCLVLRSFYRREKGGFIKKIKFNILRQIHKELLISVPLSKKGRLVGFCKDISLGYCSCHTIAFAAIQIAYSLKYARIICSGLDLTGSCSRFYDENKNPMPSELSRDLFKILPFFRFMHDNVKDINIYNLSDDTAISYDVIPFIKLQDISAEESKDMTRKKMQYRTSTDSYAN

Measured: binding result

B1: N-terminal biotinylated Lactoferricin B (peptide, UniProt P24627 36-60, looked up)
peptide: Biotin-FKCRRWQWRMKKLGAPSITCVRRAF
modifications: ends and bridges not checked
notes: lactoferricin B (LfcinB), cationic antimicrobial peptide of 25 amino acids; also called biotinylated LfcinB; biotin-labeled LfcinB; source: bought: Kelowna Inc
binds: all assays above

Reference: paper PMC3229523, “Identification of Lactoferricin B Intracellular Targets Using an Escherichia coli Proteome Chip” (PLoS ONE, 2011)
